The text below walks through data of US20240239876A1 (GRIFOLS DIAGNOSTIC SOLUTIONS, published 2024).

Usually EC50 stands for the midpoint of the concentration-response curve. What is called Kd is the free concentration of one partner at which half of the binding sites on the other are occupied at equilibrium, for simple one-to-one binding. Low readings indicate higher affinity, high ones lower affinity. Broadly, the koff is the rate constant with which the complex falls apart. High values mean a short-lived complex, low ones a long-lived complex. For orientation: kon means the second-order rate constant of association. Low values mean slow association, high ones fast association.

The target of assay [1] is T1, HIV-1 p24 protein (HIV-1, UniProt P03349 135-365).
T1 construct: also called HIV-1 p24 antigen; HIV-p24
Put plainly: indirect ELISA on HIV-1 p24, OD 405 nm, antibody titrated 1:10 from 2 µg/mL (no unit beside the EC50; taken from the x axis, p24 Antibody [ng/mL]). A general note: An ELISA detects its analyte on a solid surface through an enzyme-linked reagent.

For assay [2], the target named is T1, HIV-1 p24 protein. Put plainly: BLI, antibody captured on anti-mouse Fc biosensors, 1:1 model. A general note: BLI is a label-free optical method that tracks binding on a fibre tip over time.

B1: anti-HIV-1 antibody #A (antibody, V domains shown)
VH: EVKLVESGGGLVKPGGSLQLSCVASGFTFSSYAMSWVRQTPEKGLEWVASITSGGNTYYPDSVKGRFTISRDNAGNILYLQMSSLRSEDTAMFYCAREVLSVPFAYWGQGTLVTVST
VL: DIQMTQTTSSLSASLGDRVTINCRASQDISNYLHWYQQKPDGTVKLLIYYTSRLHSGVPSRFSGSGSGTDYSLTISNLEKEDIATYFCQQGNSFPWTFGGGTKVEIKR
notes: recombinant, expressed in CHO cells; also called mAb A
The molecule B1 gave an EC50 in the assay with HIV-1 p24 protein [1] of 3.6 ng/mL. In the assay with HIV-1 p24 protein [2], this molecule displayed a Kd of 0.2 nM, a koff of 5.9e-05 s⁻¹ and a kon of 241000 M⁻¹ s⁻¹.

B2: anti-HIV-1 antibody #B (antibody, V domains shown)
VH: EVQLVESGGGLVKPGGSLKLSCAASGFAFSSYDMSWVRQTPDKRLEWVAYITSGVGNLNYLDTVKGRFTISRDNAKNTLYLQMSSLRSEDTAMYFCLRPPSYFGSSYDAMDYWGRGTSVTVSS
VL: DIVLTQSPATLSVTPGDSVSLSCRASQSISDNLHWYRQKSHESPRLLIKYSSQSISGIPSRFSGSGSGTDFTLSINSVETEDFGMYFCQQSNSWPFTFGSGTNLELKR
notes: recombinant, expressed in CHO cells; also called mAb B
Turning to B2, in the assay with HIV-1 p24 protein [1], the EC50 came out at 76.7 ng/mL. In the assay with HIV-1 p24 protein [2], this molecule yielded a Kd below 0.00024 nM, a koff below 1e-07 s⁻¹ and a kon of 408000 M⁻¹ s⁻¹.

B3: anti-HIV-1 antibody #D (antibody, V domains shown)
VH: QIQLQQSGPELVKPGASVKVSCKASGYAFTSYQLYWVKQSHGKSLEWIGYIDPYNGGTGYNQKFKGKATLTVDKSSSTAYMHLNSLTSEDSAVYYCASPRWLPAGDYWGQGTSVTVSS
VL: DVVMTQTPLSLPVSLGDQASISCRSSQSLVNSDGNTFLQWLLQKPGQSPKLLIYKVSNRFSGVPDRFSGSGSGTDFTLRISRVEAEDLGVYFCSQSTHVPWTFGGGTKLEIKR
notes: recombinant, expressed in CHO cells; also called mAb D; monoclonal antibody D
Molecule B3 yielded an EC50 with HIV-1 p24 protein [1] of 8.41 ng/mL. Besides, in the assay with HIV-1 p24 protein [2], the Kd is below 0.00052 nM, the koff is below 1e-07 s⁻¹ and the kon stood at 194000 M⁻¹ s⁻¹.
